Residue numbers refer to the chain shown, from its start.
B1: SB143: CD73-specific alpaca VHH clone, family 4 in Tables 1-3, SEQ ID NO:69; tested as rabbit or human IgG hcAb (antibody)
heavy: QVQLVESGGGLVQAGGSLRLSCAASGRTFSRSTMGWFRQAPGKERVFVAAIRWIGGTTTYGDSVKGRFTISVDNAKNTLYLQMNSLKPEDTAVYYCAATAGGPYYLGGRDILYDYWGQGTQVTVSS
modifications: left off: a dimerising Fc or GST
notes: tested as rabbit or human IgG hcAb
B2: SB144: CD73-specific alpaca VHH clone, family 4 in Tables 1-2, SEQ ID NO:70; tested as rabbit IgG hcAb (antibody)
heavy: B1 heavy with R31G, V46A, T58A, T59K, V72I, Y104D, L112V
modifications: left off: a dimerising Fc or GST
notes: tested as rabbit IgG hcAb
B3: SB116: CD73-specific alpaca VHH clone, family 3, SEQ ID NO:81; tested as rabbit or human IgG hcAb (antibody)
heavy: QVKLQESGGGRVQTGGSLRLSCAASGISFSITTMYWYRQAPGEQRQLVALITDRGNTYYVDSVKGRFTISRDDSKNTVYLQMNDLKPEDTAVYFCNSIPGNDWGQGTQVTVSS
modifications: left off: a dimerising Fc or GST
notes: as for B1
B4: SB141: CD73-specific alpaca VHH clone, family 2 in Tables 2-3, SEQ ID NO:72; tested as rabbit or human IgG hcAb (antibody)
heavy: QVQLVESGGGLVQPGGSLRLSCAASGFTFINYHMSWLRQAPGKGLEWVSEIHSRGDITSYTNSVKGRFTISRDNAKNTLYLQMNSLKFDDTAVYYCARSRDLFNEGEYDYWGRGTQVTVSS
modifications: left off: a dimerising Fc or GST
notes: as for B1
B5: SB121: CD73-specific alpaca VHH clone, family 5, SEQ ID NO:82; tested as rabbit or human IgG hcAb (antibody)
heavy: QVQLQESGGGLVQAGGSLRLSCAASGSIGSIIAMGWYRQGPGKQRELVARMFTDDGSTNYDDSVKGRFTISRDSAGTTVYLQMNSLKPEDTAVYYCNAQRRWNAYWGPGTQVTVSS
modifications: left off: a dimerising Fc or GST
notes: as for B1
B6: SB139: CD73-specific alpaca VHH clone, family 6, SEQ ID NO:83; tested as rabbit or human IgG hcAb (antibody)
heavy: QVQLQESGGGLVQAGGSLRLSCAASENIFNIYGMGWYRQAPGKLRDLVAKITSGGRTTYADSVKGRFTISGDNAKNTVYLQMNSLKPEDTAVYYCNSYYYWGQGTQVTVSS
modifications: left off: a dimerising Fc or GST
notes: as for B1

Molecular target: T1, CD73-expressing human AML-OCI3 cells (Homo sapiens, UniProt P21589)
T1 construct: CD73-expressing human AML-OCI3 cells (AML cell line); endogenous in cells; host or cells: OCI-AML3 human AML cell line
T1 sequence (P21589 27-549): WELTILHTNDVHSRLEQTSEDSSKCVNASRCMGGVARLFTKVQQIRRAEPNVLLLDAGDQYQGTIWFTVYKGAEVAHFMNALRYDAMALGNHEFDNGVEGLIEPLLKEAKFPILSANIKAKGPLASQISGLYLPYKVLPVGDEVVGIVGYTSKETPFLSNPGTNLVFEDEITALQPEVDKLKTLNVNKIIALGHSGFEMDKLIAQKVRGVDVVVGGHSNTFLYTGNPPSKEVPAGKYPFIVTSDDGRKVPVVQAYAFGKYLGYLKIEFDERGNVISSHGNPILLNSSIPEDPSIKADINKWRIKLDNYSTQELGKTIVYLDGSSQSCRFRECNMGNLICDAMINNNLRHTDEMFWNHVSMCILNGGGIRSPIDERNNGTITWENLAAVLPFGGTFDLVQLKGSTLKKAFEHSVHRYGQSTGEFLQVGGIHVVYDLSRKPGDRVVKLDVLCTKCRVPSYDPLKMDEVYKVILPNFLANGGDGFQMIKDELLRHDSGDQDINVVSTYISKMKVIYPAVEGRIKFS
Experiment: AMP degradation by cell bound CD73, luminometric AMPglow assay
Format: cell-based
Settings: AML-OCI3 cells; 10 μl supernatant of single clone or 5+5 μl of two clones
Protocol: AMP was added and AMP degradation was measured using the luminometric AMPglow assay. Data analyses were performed using Prism (Graphpad).
Soluble recombinant human CD73 or CD73-expressing human […] cells were incubated with CD73-specific dimeric clones SB116-rbFc, SB188-rbFc, biparatopic SB116-188-Alb trimers or with non-binding L-10e-rbFc clone (control). AMP was added and AMP degradation was measured using the luminometric AMPglow assay. Data analyses were performed using Prism (Graphpad).

| Molecule | inhibition of AMP degradation |
| --- | --- |
| B1 | pronounced inhibition of AMP degradation |
| B2 | pronounced inhibition of AMP degradation |

Molecular target: T2, soluble human CD73 (Homo sapiens, UniProt P21589)
T2 construct: The ectodomain of CD73 (aa 27-549) was expressed as a recombinant protein with a C-terminal His6× tag; His6 (C); made in house; host or cells: transiently transfected HEK cells
T2 sequence (P21589 27-549): T1 sequence (P21589 27-549)
Experiment: Off-rates of soluble CD73 from immobilized Nb-rbIgG hcAb on Octet BLI
Format: binding
Settings: soluble human CD73 ectodomain 200 ng/μl as analyte; Nb-rbIgG hcAb immobilized on protein A biosensor
Protocol: The binding off-rate constants of bivalent hcAbs to human and mouse CD73 protein were determined by […] kinetic analysis on Octet RED96 (ForteBio). Immobilization of rabbit IgG hcAbs on the protein A-biosensor surface was done in HEK-6E cell supernatant, and regeneration of analytes was done with 100 mM Glycin pH=2.5. Recombinant mouse or human CD73 ectodomain was used as analytes and tested at a saturating dose of 200 ng/μl. Sensorgrams were fitted using least square regression in association than dissociation Model in Prism8 (Graphpad).

| Molecule | Kdis [s⁻¹] |
| --- | --- |
| B3 | 0.00017 |
| B4 | 0.00045 |
| B1 | 0.0013 |
| B2 | 0.00023 |
| B5 | 0.022 |
| B6 | 0.046 |

Molecular target: T3, human CD73-transfected HEK cells (Homo sapiens, UniProt P21589)
T3 construct: expressed in transfected cells; stably transfected in method 5.1)
T3 sequence (P21589 27-549): T1 sequence (P21589 27-549)
Experiment: Epitope binning by flow cytometry (human IgG hcAb blocks rabbit IgG hcAb)
Format: binding
Settings: epitope assignment on human CD73 from binning
Protocol: (§1) • 5.1 Untransfected HEK293 cells and HEK293 cells stably transfected with human or mouse CD73 were incubated for 30 min with HEK-6E cell supernatants containing rabbit IgG hcAbs (diluted 1:10 in PBS/0.1% BSA). Following washing with PBS/0.1% BSA, bound antibodies were detected with PE-conjugated goat anti-rabbit IgG polyclonal antibody (711-116-152 Dianova, Hamburg). • 5.2 For dissociation analyses, two separate aliquots of CD73-transfected cells were incubated either with Cell Proliferation Dye eFluor 450 (eBioscience) or with hcAbs for 20 min at RT. Cells were washed four times, mixed at a 1:1 ratio and further incubated at RT for 120 min before staining of bound antibodies with PE-conjugated goat anti-rabbit IgG polyclonal antibody. The dissociation of hcAbs from the target cells and association with the eFluor 450 labeled cells was analyzed by flow cytometry using the FlowJo software (Treestar). • 5.3 For epitope analyses, cells were preincubated with excess human IgG hcAbs (10 μl HEK-6E cell supernatant/100 μl PBS/0.1% BSA) for 30 min at RT before addition of Nb-rabbit IgG hcAbs (1 μl HEK-6E cell supernatant/100 μl PBS/0.1% BSA) and further incubation for 20 min at RT and staining with PE-conjugated anti-rabbit polyclonal antibody (711-116-152 Dianova, Hamburg). Cells were washed and analyzed by flow cytometry on a BD-FACS Canto. Data were analyzed using the FlowJo software (Treestar).
To evaluate the epitopes on the CD73 protein recognized by different VHHs, representative rabbit IgG hcAbs were binned against a set of human IgG hcAbs, and bound hcAbs were detected with a PE-conjugated anti-rabbit IgG secondary antibody. Cells were pre-incubated with excess human IgG hcAbs for […] at RT to block specific epitopes before addition of rabbit IgG hcAbs as detectors and further incubation for 15 min at RT. Cells were washed, and bound antibodies were detected with PE-conjugated anti-rabbit IgG polyclonal antibody. Cells were washed and analyzed by flow cytometry on a BD-FACS Canto. Data were analyzed using the FlowJo software (Treestar). Lack of blockade by a non-binding control human IgG hcAb served as negative control (unblocked), and blockade of binding with the same VHH carrying human IgG hcAb as the rabbit IgG hcAb used for detection served as positive controls for blocking. Values for blocking were determined by comparing the mean fluorescence intensities (MFIs) of PE staining of transfected cells for unblocked vs blocked rabbit hcAbs using the formula: inhibition (%)=100−(MFI (blocked)/MFI MFI(unblocked)*100). The values were rounded to whole percentages.

| Molecule | Epitope |
| --- | --- |
| B3 | 1 |
| B4 | 2 |
| B1 | 1 |
| B5 | 4 |

Molecular target: T4, human CD73 (Homo sapiens, UniProt P21589)
T4 construct: expressed in transfected cells; stably transfected in method 5.1)
T4 sequence (P21589 27-549): T1 sequence (P21589 27-549)
Experiment: Flow cytometry binding of rabbit IgG hcAbs to human CD73-transfected HEK cells
Settings: family representative clone; h = binds human CD73, m = binds mouse CD73
Protocol: HEK cells were co-transfected with expression vectors for green fluorescent protein (GFP) and human CD73, mouse CD73, and a control cell surface protein (CD39). 48 h after transfection, cells were incubated with HEK cell supernatants containing the indicated rabbit IgG hcAbs. Bound antibodies were detected with PE-conjugated anti rabbit IgG secondary antibody.
as §1
The binding specificities of the purified hcAbs were determined by flow cytometry using HEK cells transiently co-transfected with expression vectors for GFP and either mouse CD73, human CD73 or a control protein (CD39). 1×10^6 cells were incubated with 10 μl of the Nb-rbIgG hcAb containing HEK-6E cell supernatants for 30 min at 4° C. After washing, the cells were incubated with PE-conjugated anti-rabbit IgG polyclonal antibody (711-116-152 Dianova, Hamburg) and washed twice. The cells were resuspended in PBS and analyzed by flow cytometry on FACS Canto or FACS Celesta (BD Biosciences, Heidelberg). Data evaluation was conducted using the software FlowJo (Treestar, Stanford, US).

| Molecule | specificity |
| --- | --- |
| B3 | h + m |
| B2 | h + m |
| B5 | h + m |
| B6 | h + m |

Molecular target: T2, soluble human CD73
Experiment: AMP hydrolysis by soluble CD73, DPEA-Napht-Azide fluorescence assay
Format: biochemical
Settings: 50 ng CD73, 30 min pre-incubation with 10 μl hcAb supernatant, 1 mM AMP
Protocol: Recombinant human CD73 (50 ng) was pre-incubated for 30 min with hcAbs at RT in 96 well plates before addition of AMP and DPEA-Napht-Azide. Fluorescence signals were detected every 50 seconds for 30 repeats. ARFU values (>10^3/min) were calculated for a 10 min interval during the linear phase (from 5 min to 15 min) using Prism software (Graphpad). A non-specific rabbit IgG hcAb was used as control.
• 4.1 CD73 catalyzes the hydrolysis of AMP to adenosine. This reaction can be monitored by the shift in fluorescence intensity of DPEA-Napht-Azide. This property was used to determine whether hcAbs could interfere with the enzymatic activity of CD73. Soluble recombinant human CD73 (50 ng) was pre-incubated for 30 min with Nbs or hcAbs (10 μl HEK-6E cell supernatant containing 10-100 μg/ml hcAb) at RT in 96 well plates before addition of AMP (Sigma) to a final concentration of 1 mM and of DPEA-Napht-Azide to a final concentration of 50 μM. • 4.2 Fluorescence signals were recorded in white Nunc MicroWell plates (Nunc, 136101) on a Victor III plate reader (Perkin Elmer) (Exicitation filter: F485, Emission Filter: F535; CW-Lamp energy: 40000, counting time: 0.1 s). Data analyses were performed using Prism (Graphpad).
Soluble recombinant human CD73 (50 ng) was pre-incubated for 30 min with CD73-specific hcAbs or an irrelevant control hcAb (10 μl HEK-6E cell supernatant) at RT in 96 well plates before addition of AMP (Sigma) to a final concentration of 1 mM and of DPEA-Napht-Azide to a final concentration of 50 μM. Fluorescence signals were detected every 50 seconds for 30 repeats. Data analyses were performed using Prism (Graphpad).

| Molecule | effect on hydrolysis of AMP by soluble CD73 |
| --- | --- |
| B3 | effectively blocked hydrolysis of AMP |
| B4 | did not |
| B1 | inhibited CD73 catalyzed hydrolysis of AMP |
| B2 | inhibited CD73 catalyzed hydrolysis of AMP |
